We go through four proteins from paper PMC4980424, “Glucansucrase Gtf180-ΔN of Lactobacillus reuteri 180: enzyme and reaction engineering for improved glycosylation of non-carbohydrate molecules” (Applied Microbiology and Biotechnology, 2016).

Substrate in data set [1]: OC[C@H]1O[C@H](Oc2ccccc2O)[C@H](O)[C@@H](O)[C@@H]1O
The data set can be described thus: initial rates by TLC densitometry; Michaelis-Menten fit. The format is biochemical, Limosilactobacillus reuteri. As to conditions: acceptor substrate, 1000 mM sucrose as donor, pH 4.7, 37 °C. From the text:
initial rates by TLC densitometry; Michaelis-Menten fit on Gtf180-ΔN

Substrate in data set [2]: Oc1ccccc1O
The data set can be described thus: initial rates of catechol-G1 formation by TLC densitometry; Michaelis-Menten fit. The class given is biochemical, Limosilactobacillus reuteri. To be noted: acceptor substrate, 1000 mM sucrose as donor, pH 4.7, 37 °C. The source says: initial rates of catechol-G1 formation by TLC densitometry; Michaelis-Menten fit on Gtf180-ΔN

B1: Gtf180-ΔN (Limosilactobacillus reuteri) (protein)
chain: INGQQYYIDPTTGQPRKNFLLQNGNDWIYFDKDTGAGTNALKLQFDKGTISADEQYRRGNEAYSYDDKSIENVNGYLTADTWYRPKQILKDGTTWTDSKETDMRPILMVWWPNTVTQAYYLNYMKQYGNLLPASLPSFSTDADSAELNHYSELVQQNIEKRISETGSTDWLRTLMHEFVTKNSMWNKDSENVDYGGLQLQGGFLKYVNSDLTKYANSDWRLMNRTATNIDGKNYGGAEFLLANDIDNSNPVVQAEELNWLYYLMNFGTITGNNPEANFDGIRVDAVDNVDVDLLSIARDYFNAAYNMEQSDASANKHINILEDWGWDDPAYVNKIGNPQLTMDDRLRNAIMDTLSGAPDKNQALNKLITQSLVNRANDNTENAVIPSYNFVRAHDSNAQDQIRQAIQAATGKPYGEFNLDDEKKGMEAYINDQNSTNKKWNLYNMPSAYTILLTNKDSVPRVYYGDLYQDGGQYMEHKTRYFDTITNLLKTRVKYVAGGQTMSVDKNGILTNVRFGKGAMNATDTGTDETRTEGIGVVISNNTNLKLNDGESVVLHMGAAHKNQKYRAVILTTEDGVKNYTNDTDAPVAYTDANGDLHFTNTNLDGQQYTAVRGYANPDVTGYLAVWVPAGAADDQDARTAPSDEAHTTKTAYRSNAALDSNVIYEGFSNFIYWPTTESERTNVRIAQNADLFKSWGITTFELAPQYNSSKDGTFLDSIIDNGYAFTDRYDLGMSTPNKYGSDEDLRNALQALHKAGLQAIADWVPDQIYNLPGKEAVTVTRSDDHGTTWEVSPIKNVVYITNTIGGGEYQKKYGGEFLDTLQKEYPQLFSQVYPVTQTTIDPSVKIKEWSAKYFNGTNILHRGAGYVLRSNDGKYYNLGTSTQQFLPSQLSVQDNEGYGFVKEGNNYHYYDENKQMVKDAFIQDSVGNWYYFDKNGNMVANQSPVEISSNGASGTYLFLNNGTSFRSGLVKTDAGTYYYDGDGRMVRNQTVSDGAMTYVLDENGKLVSESFDSSATEAHPLKPGDLNGQK
notes: N-terminally truncated Gtf180 (ΔN)
On to B1, for which, in data set [1], the Km turned out to be 88.8 ± 17.1 mM, the kcat was 863 ± 39.3 s⁻¹ and the kcat/Km is 10200 M⁻¹ s⁻¹.

B2: Gtf180-ΔN (Limosilactobacillus reuteri; L981A) (protein)
chain: INGQQYYIDPTTGQPRKNFLLQNGNDWIYFDKDTGAGTNALKLQFDKGTISADEQYRRGNEAYSYDDKSIENVNGYLTADTWYRPKQILKDGTTWTDSKETDMRPILMVWWPNTVTQAYYLNYMKQYGNLLPASLPSFSTDADSAELNHYSELVQQNIEKRISETGSTDWLRTLMHEFVTKNSMWNKDSENVDYGGLQLQGGFLKYVNSDLTKYANSDWRLMNRTATNIDGKNYGGAEFALANDIDNSNPVVQAEELNWLYYLMNFGTITGNNPEANFDGIRVDAVDNVDVDLLSIARDYFNAAYNMEQSDASANKHINILEDWGWDDPAYVNKIGNPQLTMDDRLRNAIMDTLSGAPDKNQALNKLITQSLVNRANDNTENAVIPSYNFVRAHDSNAQDQIRQAIQAATGKPYGEFNLDDEKKGMEAYINDQNSTNKKWNLYNMPSAYTILLTNKDSVPRVYYGDLYQDGGQYMEHKTRYFDTITNLLKTRVKYVAGGQTMSVDKNGILTNVRFGKGAMNATDTGTDETRTEGIGVVISNNTNLKLNDGESVVLHMGAAHKNQKYRAVILTTEDGVKNYTNDTDAPVAYTDANGDLHFTNTNLDGQQYTAVRGYANPDVTGYLAVWVPAGAADDQDARTAPSDEAHTTKTAYRSNAALDSNVIYEGFSNFIYWPTTESERTNVRIAQNADLFKSWGITTFELAPQYNSSKDGTFLDSIIDNGYAFTDRYDLGMSTPNKYGSDEDLRNALQALHKAGLQAIADWVPDQIYNLPGKEAVTVTRSDDHGTTWEVSPIKNVVYITNTIGGGEYQKKYGGEFLDTLQKEYPQLFSQVYPVTQTTIDPSVKIKEWSAKYFNGTNILHRGAGYVLRSNDGKYYNLGTSTQQFLPSQLSVQDNEGYGFVKEGNNYHYYDENKQMVKDAFIQDSVGNWYYFDKNGNMVANQSPVEISSNGASGTYLFLNNGTSFRSGLVKTDAGTYYYDGDGRMVRNQTVSDGAMTYVLDENGKLVSESFDSSATEAHPLKPGDLNGQK
notes: as for B1
For the protein B2, in data set [2], the Km is recorded as 11.0 ± 1.3 mM, the kcat is 203 ± 8.1 s⁻¹ and the kcat/Km was found to be 18700 M⁻¹ s⁻¹.

B3: Gtf180-ΔN (Limosilactobacillus reuteri; L938F) (protein)
chain: INGQQYYIDPTTGQPRKNFLLQNGNDWIYFDKDTGAGTNALKLQFDKGTISADEQYRRGNEAYSYDDKSIENVNGYLTADTWYRPKQILKDGTTWTDSKETDMRPILMVWWPNTVTQAYYLNYMKQYGNLLPASLPSFSTDADSAELNHYSELVQQNIEKRISETGSTDWLRTLMHEFVTKNSMWNKDSENVDYGGFQLQGGFLKYVNSDLTKYANSDWRLMNRTATNIDGKNYGGAEFLLANDIDNSNPVVQAEELNWLYYLMNFGTITGNNPEANFDGIRVDAVDNVDVDLLSIARDYFNAAYNMEQSDASANKHINILEDWGWDDPAYVNKIGNPQLTMDDRLRNAIMDTLSGAPDKNQALNKLITQSLVNRANDNTENAVIPSYNFVRAHDSNAQDQIRQAIQAATGKPYGEFNLDDEKKGMEAYINDQNSTNKKWNLYNMPSAYTILLTNKDSVPRVYYGDLYQDGGQYMEHKTRYFDTITNLLKTRVKYVAGGQTMSVDKNGILTNVRFGKGAMNATDTGTDETRTEGIGVVISNNTNLKLNDGESVVLHMGAAHKNQKYRAVILTTEDGVKNYTNDTDAPVAYTDANGDLHFTNTNLDGQQYTAVRGYANPDVTGYLAVWVPAGAADDQDARTAPSDEAHTTKTAYRSNAALDSNVIYEGFSNFIYWPTTESERTNVRIAQNADLFKSWGITTFELAPQYNSSKDGTFLDSIIDNGYAFTDRYDLGMSTPNKYGSDEDLRNALQALHKAGLQAIADWVPDQIYNLPGKEAVTVTRSDDHGTTWEVSPIKNVVYITNTIGGGEYQKKYGGEFLDTLQKEYPQLFSQVYPVTQTTIDPSVKIKEWSAKYFNGTNILHRGAGYVLRSNDGKYYNLGTSTQQFLPSQLSVQDNEGYGFVKEGNNYHYYDENKQMVKDAFIQDSVGNWYYFDKNGNMVANQSPVEISSNGASGTYLFLNNGTSFRSGLVKTDAGTYYYDGDGRMVRNQTVSDGAMTYVLDENGKLVSESFDSSATEAHPLKPGDLNGQK
notes: as for B1
Consider B3, for which, in data set [1], the Km came out at 91.1 ± 7.3 mM, the catalytic constant (kcat) came to 576 ± 44 s⁻¹ and the kcat/Km was determined as 6300 M⁻¹ s⁻¹. In data set [2], the Km is listed as 85.5 ± 4.0 mM, the kcat was 1870 ± 74.7 s⁻¹ and the kcat/Km amounted to 21900 M⁻¹ s⁻¹.

B4: Gtf180-ΔN (Limosilactobacillus reuteri; N1029M) (protein)
chain: INGQQYYIDPTTGQPRKNFLLQNGNDWIYFDKDTGAGTNALKLQFDKGTISADEQYRRGNEAYSYDDKSIENVNGYLTADTWYRPKQILKDGTTWTDSKETDMRPILMVWWPNTVTQAYYLNYMKQYGNLLPASLPSFSTDADSAELNHYSELVQQNIEKRISETGSTDWLRTLMHEFVTKNSMWNKDSENVDYGGLQLQGGFLKYVNSDLTKYANSDWRLMNRTATNIDGKNYGGAEFLLANDIDNSNPVVQAEELNWLYYLMNFGTITGNNPEANFDGIRVDAVDMVDVDLLSIARDYFNAAYNMEQSDASANKHINILEDWGWDDPAYVNKIGNPQLTMDDRLRNAIMDTLSGAPDKNQALNKLITQSLVNRANDNTENAVIPSYNFVRAHDSNAQDQIRQAIQAATGKPYGEFNLDDEKKGMEAYINDQNSTNKKWNLYNMPSAYTILLTNKDSVPRVYYGDLYQDGGQYMEHKTRYFDTITNLLKTRVKYVAGGQTMSVDKNGILTNVRFGKGAMNATDTGTDETRTEGIGVVISNNTNLKLNDGESVVLHMGAAHKNQKYRAVILTTEDGVKNYTNDTDAPVAYTDANGDLHFTNTNLDGQQYTAVRGYANPDVTGYLAVWVPAGAADDQDARTAPSDEAHTTKTAYRSNAALDSNVIYEGFSNFIYWPTTESERTNVRIAQNADLFKSWGITTFELAPQYNSSKDGTFLDSIIDNGYAFTDRYDLGMSTPNKYGSDEDLRNALQALHKAGLQAIADWVPDQIYNLPGKEAVTVTRSDDHGTTWEVSPIKNVVYITNTIGGGEYQKKYGGEFLDTLQKEYPQLFSQVYPVTQTTIDPSVKIKEWSAKYFNGTNILHRGAGYVLRSNDGKYYNLGTSTQQFLPSQLSVQDNEGYGFVKEGNNYHYYDENKQMVKDAFIQDSVGNWYYFDKNGNMVANQSPVEISSNGASGTYLFLNNGTSFRSGLVKTDAGTYYYDGDGRMVRNQTVSDGAMTYVLDENGKLVSESFDSSATEAHPLKPGDLNGQK
notes: as for B1
Turning to B4, in data set [2], the Km was found to be 58.9 ± 6.4 mM, the kcat is 449 ± 4.9 s⁻¹ and the kcat/Km is 7700 M⁻¹ s⁻¹.

The Km is the substrate concentration at which the rate is half of its maximum. A word on the kcat: it is the number of substrate molecules converted per active site and unit of time at saturation. Broadly, the kcat/Km is the turnover number divided by the Michaelis constant.
